In data set [1] the target is T1, LIG1 E346A/E592A (EE/AA) (Homo sapiens, UniProt P18858 262-904, E346A;E592A). The data set can be described thus: X-ray crystallography (1.85 A); 2 mM EDTA in cryoprotectant, 1 mM ATP; 5'-adenylylated; Crystals: complex in 150 mM NaCl, 20 mM Tris-Cl pH 7.5, 1 mM TCEP, 1 mM ATP mixed 1:1 with 100 mM MES pH 6, 100 mM lithium acetate, 15% PEG3350; ligation/trapping: 50 mM NaMOPS pH 7.5, 1 mM DTT, 0.05 mg/mL BSA, ionic strength 150 mM (NaCl), 37 C. The note with it: protein: recombinant; tags: His-tag removed by TEV; nicked duplex, 11mer + 7mer on 18mer template, blunt ends, 8oxoG:A Hoogsteen pair at nick.
T1 sequence (P18858 262-904 E346A/E592A): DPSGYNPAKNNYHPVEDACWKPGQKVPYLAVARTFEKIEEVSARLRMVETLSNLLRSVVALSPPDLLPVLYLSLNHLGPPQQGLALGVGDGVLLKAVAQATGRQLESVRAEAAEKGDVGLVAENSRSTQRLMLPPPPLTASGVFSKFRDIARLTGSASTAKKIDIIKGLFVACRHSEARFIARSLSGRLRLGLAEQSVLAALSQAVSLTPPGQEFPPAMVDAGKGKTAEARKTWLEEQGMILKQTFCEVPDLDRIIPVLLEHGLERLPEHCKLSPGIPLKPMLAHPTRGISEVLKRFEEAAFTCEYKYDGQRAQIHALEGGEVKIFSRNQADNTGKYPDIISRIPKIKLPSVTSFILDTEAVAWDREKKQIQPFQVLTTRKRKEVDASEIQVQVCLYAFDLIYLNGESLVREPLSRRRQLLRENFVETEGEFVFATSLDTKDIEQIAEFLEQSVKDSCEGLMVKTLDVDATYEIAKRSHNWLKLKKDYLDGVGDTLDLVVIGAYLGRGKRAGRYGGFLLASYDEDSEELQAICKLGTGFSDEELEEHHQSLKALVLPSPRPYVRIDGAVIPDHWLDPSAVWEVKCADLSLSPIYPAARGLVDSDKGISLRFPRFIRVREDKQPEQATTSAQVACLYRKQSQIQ

For data set [2], the target named is T2, LIG1 WT (Homo sapiens, UniProt P18858 262-904). The data set can be described thus: X-ray crystallography (2.05 A); 200 mM Mg2+ in cryoprotectant, 1 mM ATP; AMP-DNA intermediate; 4 Mg2+ sites; Crystals: complex in 150 mM NaCl, 20 mM Tris-Cl pH 7.5, 1 mM TCEP, 1 mM ATP mixed 1:1 with 100 mM MES pH 6, 100 mM lithium acetate, 15% PEG3350; ligation/trapping: 50 mM NaMOPS pH 7.5, 1 mM DTT, 0.05 mg/mL BSA, ionic strength 150 mM (NaCl), 37 C. To be noted: protein: recombinant; tags: His-tag removed by TEV; nicked duplex, 11mer + 7mer on 18mer template, blunt ends.
T2 sequence (P18858 262-904): as the sequence (P18858 262-904 E346A/E592A) above, with A85E, A331E counted along it

For data set [3], the target named is T1, LIG1 E346A/E592A (EE/AA). The data set can be described thus: X-ray crystallography (2.20 A); 200 mM Mg2+ in cryoprotectant, 1 mM ATP; Crystals: complex in 150 mM NaCl, 20 mM Tris-Cl pH 7.5, 1 mM TCEP, 1 mM ATP mixed 1:1 with 100 mM MES pH 6, 100 mM lithium acetate, 15% PEG3350; ligation/trapping: 50 mM NaMOPS pH 7.5, 1 mM DTT, 0.05 mg/mL BSA, ionic strength 150 mM (NaCl), 37 C. The note with it: protein: recombinant; tags: His-tag removed by TEV; nicked duplex, 11mer + 7mer on 18mer template, blunt ends.

Data set [4] concerns the target T1, LIG1 E346A/E592A (EE/AA). The data set can be described thus: X-ray crystallography (1.75 A); 2 mM EDTA in cryoprotectant, 1 mM ATP; 5'-adenylylated; Crystals: complex in 150 mM NaCl, 20 mM Tris-Cl pH 7.5, 1 mM TCEP, 1 mM ATP mixed 1:1 with 100 mM MES pH 6, 100 mM lithium acetate, 15% PEG3350; ligation/trapping: 50 mM NaMOPS pH 7.5, 1 mM DTT, 0.05 mg/mL BSA, ionic strength 150 mM (NaCl), 37 C. The note with it: protein: recombinant; tags: His-tag removed by TEV; nicked duplex, 11mer + 7mer on 18mer template, blunt ends.

The next data set has as its target LIG1 E592R (Homo sapiens, UniProt P18858 262-904, E592R). Kind of data set: X-ray crystallography (1.85 A); 2 mM EDTA in cryoprotectant, 1 mM ATP; Crystals: complex in 150 mM NaCl, 20 mM Tris-Cl pH 7.5, 1 mM TCEP, 1 mM ATP mixed 1:1 with 100 mM MES pH 6, 100 mM lithium acetate, 15% PEG3350; ligation/trapping: 50 mM NaMOPS pH 7.5, 1 mM DTT, 0.05 mg/mL BSA, ionic strength 150 mM (NaCl), 37 C. The note with it: protein: recombinant; tags: His-tag removed by TEV; nicked duplex, 11mer + 7mer on 18mer template, blunt ends.

In data set [5] the target is T2, LIG1 WT. Kind of data set: X-ray crystallography (1.55 A); 2 mM EDTA in cryoprotectant, 1 mM ATP; Crystals: complex in 150 mM NaCl, 20 mM Tris-Cl pH 7.5, 1 mM TCEP, 1 mM ATP mixed 1:1 with 100 mM MES pH 6, 100 mM lithium acetate, 15% PEG3350; ligation/trapping: 50 mM NaMOPS pH 7.5, 1 mM DTT, 0.05 mg/mL BSA, ionic strength 150 mM (NaCl), 37 C. To be noted: protein: recombinant; tags: His-tag removed by TEV; nicked duplex, 11mer + 7mer on 18mer template, blunt ends.

LIG1 E592R, sequence (P18858 262-904 E592R): as the sequence (P18858 262-904 E346A/E592A) above, with A85E, A331R counted along it

B1: nicked 18mer 3'-8oxoG:A (oligos 3,5,6) (dsDNA)
DNA 1: GTCCGACAACGCATCAGC
DNA 2: GCTGATGCGTG
DNA 3: GTCGGAC
modifications: 3'-terminal G of 11mer is 8oxoG (opposite A); 5' phosphate on 7mer, 5'-adenylylated in the crystal
Take B1: in the data set with LIG1 E346A/E592A (EE/AA) [1], the binding result was “binds”.

B2: nicked 18mer 3'ddC (oligos 1,2,3) (dsDNA)
DNA 1: GTCCGACGACGCATCAGC
DNA 2: GCTGATGCGTC
DNA 3: GTCGGAC
modifications: 3'-terminal C of 11mer is ddC; 5' phosphate on 7mer, 5'-adenylylated in the complex
For the molecule B2, the binding result in the data set with LIG1 WT [2] and with LIG1 E346A/E592A (EE/AA) [3] was “binds” in each case.

B3: nicked 18mer 3'OH (oligos 1,3,4) (dsDNA)
DNA 1: GTCCGACGACGCATCAGC
DNA 2: GCTGATGCGTC
DNA 3: GTCGGAC
modifications: 5' phosphate on 7mer, 5'-adenylylated in the crystal
Consider B3, for which the binding result with LIG1 E346A/E592A (EE/AA) [4], with LIG1 E592R and with LIG1 WT [5] was “binds” each time.

For the origin of these results see PMC6882888, “Two-tiered enforcement of high-fidelity DNA ligation”.
